Here are results for 15 molecules from patent US20250289873A1 (published 2025).

Numbering of substitutions follows the chain as printed.

T1: FHR-4 (coated on plate, C3 convertase assembly assay) (UniProt Q92496 20-331)
T1 chain: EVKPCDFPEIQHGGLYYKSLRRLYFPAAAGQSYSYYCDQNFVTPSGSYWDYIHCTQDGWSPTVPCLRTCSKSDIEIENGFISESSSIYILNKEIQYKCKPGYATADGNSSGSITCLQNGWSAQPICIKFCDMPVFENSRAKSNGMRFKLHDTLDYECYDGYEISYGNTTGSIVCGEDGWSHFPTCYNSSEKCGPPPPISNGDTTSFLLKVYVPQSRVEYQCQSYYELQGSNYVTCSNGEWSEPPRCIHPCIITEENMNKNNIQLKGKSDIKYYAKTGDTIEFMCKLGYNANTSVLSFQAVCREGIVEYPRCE

T2: hCFHR4b
T2 chain: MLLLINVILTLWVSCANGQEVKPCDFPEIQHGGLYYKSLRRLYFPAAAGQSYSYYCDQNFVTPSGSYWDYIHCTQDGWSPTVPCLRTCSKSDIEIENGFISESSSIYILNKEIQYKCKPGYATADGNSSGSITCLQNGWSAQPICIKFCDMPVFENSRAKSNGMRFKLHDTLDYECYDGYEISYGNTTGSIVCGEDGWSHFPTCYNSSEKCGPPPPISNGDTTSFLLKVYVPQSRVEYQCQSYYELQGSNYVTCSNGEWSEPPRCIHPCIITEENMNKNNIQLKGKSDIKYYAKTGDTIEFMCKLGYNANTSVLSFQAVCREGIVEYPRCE

B1: ATX-P-577 (antibody, V domains shown)
VH: QVQLQESGPGLVKPSGTLSLTCAVSGGSISSSNWWTWVRQPPGKGLEWIGETYHDGSTNYNPSLKSRVTISVDKSKNQFSLKLSSVTAADTAVYYCLEFYFDYWGQGTLVTVSS
VL: DIQMTQSPSSLSASVGDRVTITCRASQDIRNDLGWYQQKPGKVPKRLIYAASSLQSGVPSRFSGSGSGTEFTLTISSLQPEDFASYYCLQYNNYPFTLGPGTKVDIKR
B2: ATX-P-596 (antibody, V domains shown)
VH: EVQLVESGGGLVQPGRSLRLSCAASGFSFDDYAMHWVRQVPGKGLEWVSGISWTGGSVGYADPVKGRFTISRDNAKNSLYLQMNSLRPEDTALYYCAKDMGDGYSRNWPFDYWGQGTLVTVSS
VL: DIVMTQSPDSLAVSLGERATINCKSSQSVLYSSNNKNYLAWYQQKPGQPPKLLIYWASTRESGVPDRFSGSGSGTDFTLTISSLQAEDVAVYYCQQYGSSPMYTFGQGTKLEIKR
B3: ATX-P-594 (antibody, V domains shown)
VH: QVQLQQSGPGLVKPSQTLSLTCAISGDSVSSNSASWNWIRQSPSRGLEWLGTTYYRSKWFNVYAVSVKSRITINPDTSKNQFSLHLNSVTPEDTAIYFCTRDRGDLLHWYFDLWGRGTLVTVSS
VL: EIVLTQSPGTLSLSPGERATLSCRASQSVSSSYLAWYQQKPGQSPRLLIYGASSRATGIPDRFSGSGSGTDFTLTISRLEPEDFAVYYCQQYGRSVTFGGGTKLEIKR
B4: ATX-P-604 (antibody, V domains shown)
VH: QVQLQQSGPGLVKPTQTLSLTCAISGDSVSSNSAAWNWIRQSPSRGLEWLGRTYYRSKWFNGYAVSVKSRITINPDASKNQFSLHLKSVTDEDTAVYYCATDRGELLHWYFDLWGRGTLVTVSS
VL: B3 VL with G9D, S28T, V29I, S30R, Q39L, S44A, T75S, V96I, T97I, L104V
B5: ATX-P-563 (antibody, V domains shown)
VH: QVQLQESGPGLMKPSETLSLTCTVSGGSISSHYWSWIRQPPGKGLEWIGYIFYSGNINYNPSLKSRVTISVDTSKNQFSLKLRSVTTADTAVYYCARDRGGSYSYHFDCWGQGTLVTVSS
VL: DIQMTQSPSSVSASVGDRVTITCRASQSFAGWLAWYQQKPGKAPKLLIYAASTLQSGVPSRFSGSGSGTDFTLTISSLQPEDFATYYCQQANSFPLTFGGGTKVEIKR
B6: ATX-P-566 (antibody, V domains shown)
VH: QVQLQQSGPGLVKPSQTLSLTCAISGDSVSSNSAAWNWIRQSPSRGLEWLGRTYYRSKWFNNYSVSVKSRIAINPDTSKNQFSLQLNSVTPEDTAVYYCARDLGELLDWYFDLWGRGTLVTVSA
VL: EIVLTQSPGTLSLSPGDRATLSCRASQSVRNSYVAWYQQKPGQAPRLLIYGASSRATGIPDRFSGSGSGTDFSLTIGRLEPEDFVVYYCQQYGNSPLTFGGGTKVEIKR
B7: ATX-P-595 (antibody, V domains shown)
VH: QVQLQQSGPGLVKPSQTLSLTCAISGDSVSSNSAAWNWIRQSPSRGLEWLGRTYYRSKWFNDYALSVKSRITINPDTSKNQFSLHLNSVTPEDTAVYYCAREPGIVAPGPFDYWGQGTLVTVSS
VL: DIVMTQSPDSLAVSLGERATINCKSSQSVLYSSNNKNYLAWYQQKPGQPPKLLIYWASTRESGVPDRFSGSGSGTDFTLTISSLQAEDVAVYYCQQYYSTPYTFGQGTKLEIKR
B8: ATX-P-592 (antibody, V domains shown)
VH: B7 VH with F60Y, N61S, A64P, H85Q, E102D, P103S, A107E, P108T, G109T
VL: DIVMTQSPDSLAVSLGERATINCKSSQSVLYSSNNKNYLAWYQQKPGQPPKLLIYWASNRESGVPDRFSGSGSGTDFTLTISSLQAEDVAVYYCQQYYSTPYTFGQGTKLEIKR
B9: ATX-P-600 (antibody, V domains shown)
VH: EVQLVESGGGLVQPGRSLRLSCAASGFTFDDYAMHWVRQVPGRGLEWVSGISWSGGSIGYADSVKGRFTISRDNSKNSLYLQMNSLRAEDTALYYCTKDREDGYNYGGVFDYWGQGTLVTVSS
VL: EIVLTQSPGTLSLSPGERATLSCRASQNVRGSYLAWYQQKPGQAPRLLIYGASNRATDIPDRFSGSGSGTDFTLTISGLEPEDFVVYYCQQYGSSYTFGQGTKVEIKR
B10: ATX-P-603 (antibody, V domains shown)
VH: QVQLQESGPGLVKPSGTLSLTCAVSGGSISGSHWWSWFRQPPGKGLEWIGEIYHTGSTNKNPSLKSRVTISLDKSKNQFSLRLRSVTDADTAVYYCARDQYTGSPRDAFDIWGQGTMVTVSS
VL: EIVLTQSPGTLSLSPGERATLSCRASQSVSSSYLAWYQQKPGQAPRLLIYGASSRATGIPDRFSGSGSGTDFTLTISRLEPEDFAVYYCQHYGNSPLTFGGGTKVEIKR
B11: ATX-P-569 (antibody, V domains shown)
VH: EVQLVESGGGLAQFGRSLRLSCAASGFTFDDYAMHWLRQAPGMGLEWVSGISWNSGSIGYADSVKGRFTIARDNAKNSVHLQMNSLRAEDTALYYCAKDIGNGYTKGDVFDIWGQGTMVTVSS
VL: DIQMTQSPSTLSASVGDSVTITCRASQNIITWLAWYQQKPGKAPNLLIYKASSLESGVPSRFSGSGSGTEFTLTISSLQPDDFATYYCQQYSSYSYTFGQGTKLEIKR
B12: ATX-P-587 (antibody, V domains shown)
VH: QVQLQQSGPGLVKPSQTLSLTCAISGDSVSSNSAAWNWIRQSPSRGLEWLGKTYYRSKWYNYYALSVKSRITINPDTSKNQFSLHLNSVTPEDTAVYYCARDGDYYLPSPFDLWGHGTMVTVSS
VL: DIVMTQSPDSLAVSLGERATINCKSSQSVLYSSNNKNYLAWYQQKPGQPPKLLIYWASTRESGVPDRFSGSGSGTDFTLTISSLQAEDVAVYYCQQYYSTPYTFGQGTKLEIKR
B13: ATX-P-564 (antibody, V domains shown)
VH: EVQLVESGGGLVKPGGSLRLSCAASGFTFSSYTMNWVRQAPGKGLEWVSSISSSSSYTYYADSVRGRFTISRDNAKNSLYLQMSSLRAEDTAVYYCARSASIAAGMDVWGKGTTVTVSS
VL: DIVMTQSPLSLPVTPGEPASISCRSSQSLLHSTGYNFLDWYLQKPGLSPQLLIYLASNRASGVPDRFSGSGSGTDFTLKISRVEAEDVGVYYCMQALQTPYTFGQGTKLEIKR
B14: ATX-P-591 (antibody, V domains shown)
VH: QVQLVQSGAEVKKPGASVKVSCKASGYTFTSYGISWVRQAPGQGLEWMGWISAYNGNTNYAQKLQGRVTMTTDTSTSTAYMELRSLRSDDTAIYYCTRDLRGTAFDYWGQGTPVTVSS
VL: DIQMTQSPSSLSASVGDRVTITCRASQSINTYLNWYQQKPGKAPKLLIYAASSLQSGVPSRFSGSGSGTDFTLTISSLQPEDFATYSCQHSFTTPFTFGPGTKLEIKR
B15: ATX-P-582 (antibody, V domains shown)
VH: QVQLQESGPGLVKPSGTLSLTCAVSGGSISISKWWSWVRQPPGKGLEWIGEIYHTGSTNYHPSLKSRVTISVDKSKNQFYLKLNSVTAADTAVYYCARDELRLGELSPSLDIWGQGTMVTVSS
VL: DIQMTQSPSSLSASVGDRVTITCRASQNINNYLNWFRQKPGKAPKLLIFAASSLQSGVPSRFSGSESGTDFTLTISSLQPEDFATYYCQQSYSTPLTFGGGTKVEIKR

For the first experiment, the target named is hCFHR4. As to the kind of experiment: SPR kinetics.
By Kd is commonly meant the equilibrium constant for the complex coming apart. Low readings indicate tighter binding, high ones weaker binding. Regarding B1, the Kd turned out to be 0.665 nM.

In the case of B2, the Kd was 0.225 nM.

B3: the Kd stood at 0.326 nM.

Regarding B4, the Kd worked out at 0.222 nM.

For B5, the Kd worked out at 1.05 nM.

B6 came in with a dissociation constant (Kd) of 3.48 nM.

As to B7, binding was put at a Kd of 16.9 nM.

For B8, the Kd was found to be 0.973 nM.

Molecule B9 had a Kd of 7.39 nM.

In turn, B10 had a Kd of 0.917 nM.

B11 registered a Kd of 1.44 nM.

B12 yielded a dissociation constant Kd of 4.26 nM.

B13 registered a Kd of 3.56 nM.

B14: the Kd stood at 117 nM.

In the case of B15, binding was put at a Kd of 10 nM.

For a further experiment, the target named is T1, FHR-4 (coated on plate, C3 convertase …). As to the kind of experiment: C3 convertase assembly assay.
Usually IC50 stands for the concentration that gives 50% inhibition. A lower IC50 goes with higher potency. B3 displayed an IC50 of 4 nM.

B7: the IC50 was 5.9 nM.

B8 gave an IC50 of 4.2 nM.

Molecule B9 displayed an IC50 of 8.4 nM.

As for B10, inhibition was half-maximal at 7.6 nM (IC50).

On to B11, for which it took 12 nM to reach half-maximal inhibition (IC50).

For the next experiment, the target named is T2, hCFHR4b. Briefly: SPR kinetics.
B3 displayed a Kd of 0.326 nM.

Turning to B7, the affinity, expressed as Kd, was 16.9 nM.

B8 returned a Kd of 0.973 nM.

Consider B9, for which binding was characterised by a dissociation constant (Kd) of 7.39 nM.

In turn, B10 displayed a dissociation constant (Kd) of 0.917 nM.

B11 registered a Kd of 1.44 nM.

The next experiment concerns the target T1, FHR-4 (coated on plate, C3 convertase …). As to the kind of experiment: C3 convertase assembly assay. The source holds these as a separate data set.
For the molecule B3, the IC50 was 4.09 nM.

B6 yielded an IC50 of 3.27 nM.

Regarding B7, the IC50 stood at 5.94 nM.

B8 showed an IC50 of 4.28 nM.

Take B9: half-maximal inhibition (IC50) required 8.44 nM.

Consider B10, for which half-maximal inhibition (IC50) was put at 7.6 nM.

B11 came in with an IC50 of 12.1 nM.

Regarding B13, the IC50 is 3.94 nM.
